From patent US9074002B2, “PTP1B inhibitors” (Cold Spring Harbor Laboratory, priority 2009, dated 2015) come the findings set out here.

One assay addresses T1, endogenous PTP1B-OX (Homo sapiens, UniProt P18031).
T1 construct: endogenous in cells; host or cells: 293T cells (transfected only with the scFv intrabody)
T1 sequence (P18031 1-435): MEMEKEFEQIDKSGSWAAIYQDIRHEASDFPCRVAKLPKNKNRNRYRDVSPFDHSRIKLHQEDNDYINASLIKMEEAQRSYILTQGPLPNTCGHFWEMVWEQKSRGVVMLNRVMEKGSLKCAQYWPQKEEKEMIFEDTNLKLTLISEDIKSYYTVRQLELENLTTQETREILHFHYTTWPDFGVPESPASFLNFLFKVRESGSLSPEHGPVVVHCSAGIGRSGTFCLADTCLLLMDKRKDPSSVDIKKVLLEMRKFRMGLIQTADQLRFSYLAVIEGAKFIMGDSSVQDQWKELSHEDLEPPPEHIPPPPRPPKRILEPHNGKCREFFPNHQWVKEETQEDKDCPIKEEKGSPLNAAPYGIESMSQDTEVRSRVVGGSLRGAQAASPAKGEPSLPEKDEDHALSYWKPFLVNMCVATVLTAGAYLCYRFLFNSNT
The assay is described as follows: Intrabody interaction in 293T cells treated with H2O2 (Ni-NTA pull down / anti-PTP1B immunoprecipitation). The class given is cell-based. The following applies: 1 mM H2O2 5 minutes. The method, then:
(§1) One of the positive candidate scFvs (scFv45) was cloned in pcDNA3.2/V5-GW/D-TOPO expression vector and transiently expressed in mammalian cells as stable intracellular antibody (aka intrabody) (FIG. 10). To detect PTP1B-OX and scFv45 interaction in mammalian cells, scFv45 was overexpressed in 293T cells as described herein (See Example 4) and 48 hours post transfection the cells were serum-starved for 16 hours in growth medium (DMEM, low glucose) without serum (FBS), then incubated with 1 mM H2O2 (in growth medium without serum) for 5 minutes at 37° C. or treated with 20 mM NAC (in growth medium without serum) for 1 hour at 37° C. Cells treated with H2O2 were washed twice with cold (4° C.) PBS and lysed in lysis buffer (25 mM HEPES, pH 7.4, 150 mM NaCl, 0.25% Deoxychloate, 1% TritonX-100, 25 mM NaF, 10 mM MgCl2, 1 mM EDTA, 10% Glycerol, 0.5 mM PMSF, 10 mM Benzamidine, protease inhibitor cocktail). Cells treated with NAC were lysed with lysis buffer containing 2 mM TCEP to ensure a post-lysis reducing environment. Interaction between PTP1B and intrabody45 were tested by pulling down the protein complex from 1 mg of total cell lysate with Ni-NTA agarose or by immunoprecipitating PTP with anti-PTP1B (FG6). For the pull down experiment, Ni-NTA agarose beads were incubated with the lysates (both oxidized and reduced) at 4° C. Protein complex bound to the Ni-NTA agarose beads was pulled down and washed three times; first with lysis buffer containing 20 mM imidazole followed by two more washes with wash buffer (PBS, pH 7.4, 20 mM imidazole, 0.05% BSA, 0.05% Tween-20 and protease inhibitors). Applicant used 20 mM imidazole in the wash buffer to reduce the non-specific binding of proteins with the Ni-NTA agarose beads. The complex was eluted with wash buffer containing 500 mM imidazole with gentle shaking at 4° C. and the eluate was mixed with SDS sample buffer with DTT. For the immunoprecipitation experiments, 1 mg of total cell lystates (both oxidized and reduced) was incubated with anti-PTP1B antibody (FG6) at 4° C. The interacting protein complex was immunoprecipitated after incubating the lysate-antibody mixture with protein A/G Sepharose at 4° C. After immunoprecipitation, Sepharose beads were washed three times; first with lysis buffer followed by two more washes with wash buffer (PBS, pH 7.4, 0.05% BSA, 0.05% Tween-20 and protease inhibitors). The Sepharose beads were then heated at 90° C. in 2×SDS sample buffer with DTT. Proteins from the pulled down or immunoprecipitated complex were separated by SDS-PAGE. PTP was detected with anti-PTP1B antibody (FG6) and the intrabodies were detected with anti-HA (3F10)-HRP antibody [anti-HA (3F10)-HRP, Roche] by immunoblotting.
In the initial in vitro phosphatase screening assay using reversibly oxidized (with H2O2) recombinant PTP1B, Applicant found four different PTP1B-OX specific scFvs (scFv45, scFv57, scFv64 and scFv106) from the initial pool of 12 different scFvs. […] Applicant has also shown that scFv45, expressed as an intrabody in mammalian cells, can bind to endogenous PTP1B-OX but not endogenous PTP under reducing conditions. Further assessment was carried out to identify additional PTP1B-OX-specific intrabodies. Additional scFvs have been subcloned in pcDNA3.2/V5-GW/D-TOPO mammalian expression vector (FIG. 10) from their respective phagemid constructs. After transient overexpression of these scFvs as intrabodies in 293T cells, the interaction between endogenous PTP1B and these intrabodies in both H2O2-treated cells and cells was observed under reducing condition (treated with NAC and lysed with lysis buffer containing TCEP). […] All can be used in the methods and compositions described herein. Additional scFvs, such as some or all of the 137 selected individual scFvs from the library, can be similarly tested by in vitro screening and/or by binding assay in mammalian cells.

Assay [1] has as its target T2, endogenous PTP1B under reducing conditions (Homo sapiens, UniProt P18031).
T2 construct: endogenous in cells; host or cells: 293T cells (transfected only with the scFv intrabody)
T2 sequence (P18031 1-435): T1 sequence (P18031 1-435)
In words: Intrabody interaction in 293T cells under reducing condition (NAC, TCEP) (Ni-NTA pull down / immunoprecipitation). The class given is cell-based. The following applies: 20 mM NAC, lysis buffer with 2 mM TCEP, FIGS. 11, 12. The method, then:
as §1
In the initial in vitro phosphatase screening assay using reversibly oxidized (with H2O2) recombinant PTP1B, Applicant found four different PTP1B-OX specific scFvs (scFv45, scFv57, scFv64 and scFv106) from the initial pool of 12 different scFvs. […] Applicant has also shown that scFv45, expressed as an intrabody in mammalian cells, can bind to endogenous PTP1B-OX but not endogenous PTP under reducing conditions. Further assessment was carried out to identify additional PTP1B-OX-specific intrabodies. Additional scFvs have been subcloned in pcDNA3.2/V5-GW/D-TOPO mammalian expression vector (FIG. 10) from their respective phagemid constructs. […]

Another assay has as its target T3, PTP1B (reduced, active) (Homo sapiens, UniProt P18031).
T3 construct: made in house; host or cells: E. coli BL21 (pET19b)
T3 sequence (P18031 3-277 limits assumed): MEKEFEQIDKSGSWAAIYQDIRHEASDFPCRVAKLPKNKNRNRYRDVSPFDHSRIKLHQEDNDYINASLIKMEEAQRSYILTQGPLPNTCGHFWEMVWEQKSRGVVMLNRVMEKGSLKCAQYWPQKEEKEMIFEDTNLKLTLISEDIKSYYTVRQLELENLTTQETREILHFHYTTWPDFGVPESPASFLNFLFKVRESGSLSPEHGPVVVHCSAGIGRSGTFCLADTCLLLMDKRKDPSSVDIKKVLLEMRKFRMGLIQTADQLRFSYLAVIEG
The assay is described as follows: Direct effect of scFvs/antibodies on PTP1B phosphatase activity (32P-pTyr-RCML substrate). The class given is biochemical. The following applies: 32P-labeled pTyr-RCML substrate, FIG. 1. The method, then:
(§2) Applicant's hypothesis was that scFvs that are able to bind to and stabilize the oxidized conformation of PTP1B in solution would inhibit reactivation by reducing agent, but have no direct inhibitory effect on phosphatase activity in assays in vitro. Activity was measured using ^32P-labeled pTyr-Reduced Carboxamidomethylated and Maleylated Lysozyme as substrate. Applicant established conditions in which wild type PTP1B could be reversibly oxidized in vitro. PTP1B was inactivated following addition of H2O2. […] Applicant validated this approach further, by testing the effects of expressing one of the scFvs (scFv45) as a single chain antibody fragment “intrabody” to PTP1B, using 293T cells as the expression system. This intrabody was expressed transiently and then tested for effects on insulin signaling, focusing initially on the tyrosine phosphorylation status of the beta-subunit of the insulin receptor and insulin receptor substrate (IRS-1).
(§3) Reduced carboxamidomethylated and maleylated lysozyme (RCML) was labeled with ^32P using recombinant GST-FER kinase to stoichiometries up to 0.8 (mol ^32P incorporated/mol of protein). This ^32P-Labeled phospho-tyrosyl RCML was used as the substrate in the in-solution phosphatase assay for screening the conformation sensor scFvs. Recombinant PTP1B was reversibly oxidized and transiently inactivated with H2O2 (5× molar excess of the protein). […] Purified bacterially expressed scFvs (100× molar excess of PTP1B) were incubated with PTP after H2O2 treatment and its removal and the effect of individual scFv on stabilizing the reversibly oxidized conformation was assessed by the phosphatase assay under reducing condition.
In order to screen the isolated scFvs for those that inhibit reactivation of PTP1B-OX by reducing agent, but have no direct inhibitory effect on phosphatase activity in assays in vitro, the effect of six scFvs (scFv20, scFv34, scFv45, scFv57, scFv64 and scFv106) on PTP1B activity was determined. PTP1B activity was measured using 32P-labeled pTyr-Reduced Carboxamidomethylated and Maleylated Lysozyme as substrate (FIGS. 1 and 2). Addition of the reducing agent TCEP alone had no substantial effect in PTP1B activity was assessed.

For the next assay, the target named is T4, PTP1B-OX (Homo sapiens, UniProt P18031).
T4 construct: made in house; host or cells: E. coli BL21 (pET19b)
T4 sequence (P18031 3-277): T3 sequence (P18031 3-277 limits assumed)
In words: Inhibition of reactivation of reversibly oxidized PTP1B by reducing agent (RCML phosphatase assay). The class given is biochemical. As to conditions: PTP1B oxidized with H2O2, buffer exchange, TCEP added; FIG. 2. Here is the method: as §2, §3
In a different experiment, conditions were established in which wild type PTP1B could be reversibly oxidized in vitro. […] Addition of the reducing agent alone had no substantial effect on PTP1B activity (FIGS. 1 and 2, “PTP1B”).

Entries after “also recorded” stand apart in the source; their conditions may differ.

B1: scFv136: additional scFv, SEQ ID NO: 153 and 160 (protein)
scFv: MKKTAIAIAVALAGFATVAQAALTQPSSVSANPGETVKITCSGGSYSYGWYQQKSPGSAPVTVIYSSDKRPSDIPSRFSGSKSGSTSTLTITGVQAEDEAVYYCGSRDSNYVGIFGAGTTLTVLGQSSRSSTVTLDESGGGLQTPGGALSLVCKASGFTFSSYEMQWVRQAPGKGLEFVAAISSDGSYTNYGAAVQGRATISRDNGQSTVRLQLSNLRAEDTATYYCARSPGGYTWWPGAAGGIDAWGHGTEVIVSSTSGQAGQHHHHHHGAYPYDVPDYAS
As to B1, the “binding of intrabody to endogenous PTP1B-OX” value with endogenous PTP1B-OX (FIGS. 11, 12) is recorded as “co-pulldown of PTP1B-OX in the presence of H2O2”; in the assay with endogenous PTP1B-OX (FIGS. 11, 12, listed as scFv 136), “bound weakly to PTP1B-OX”. Further, the “binding of intrabody to endogenous PTP1B under reducing conditions” value in assay [1] is “not in the presence of NAC and TCEP”.

B2: scFv64: scFv binding PTP1B-OX, SEQ ID NO: 28 and 97 (protein)
scFv: MKKTAIAIAVALAGFATVAQAALTQPSSVSANPGDPLKITCSGDSSGYGYGWYQQKSPGSAPVTVIYNNNKRPSDIPSRFSGSKSGSTGTLTITGVQAEDEAVYFCGSEDSNTDAVFGAGTTLTVLGQSSRSSTVTLDESGGGLQTPGGTLSLACKASGFTFSGYDMGWVRQAPGKGLEYVAGITSDGRYASYGSAVDGRAAIWRDNGQSTVRLQLKNLRTEDTATYYCARNDGSGWNGNNIDAWGHGTEVIVSSTSGQAGQHHHHHHGAYPYDVPDYAS
B2: the “direct effect on PTP1B activity” value in the assay with PTP1B (reduced, active) is listed as “no direct inhibition of PTP activity”. The “inhibition of reactivation of PTP1B-OX by reducing agent (restoration of PTP1B activity after reversible oxidation)” value with PTP1B-OX is on record as “substantial inhibition of the restoration of PTP1B activity”. Moreover, the “binding of intrabody to endogenous PTP1B-OX” value in the assay with endogenous PTP1B-OX (FIGS. 11, 12) is recorded as “bound weakly to PTP1B-OX”.

B3: scFv106: scFv binding PTP1B-OX, SEQ ID NO: 29 and 133 (protein)
scFv: MKKTAIAIAVALAGFATVAQAALTQPSSVSANPGETVKITCSGDSSDYGYGWYQQKSPGSAPVTVTYSNNQRPPNIPSRFSGSASGSTATLTITGVQVEDEAVYYCGSEDSTTDAVFGAGTTLTVLGQSSRSSAMTLDESGGGLQTPGGALSLVCKASGFTFSSYDMGWVRQAPGKGLEYVAGITNDGRYASYGSAVDGRATISRDNGQSTVRLQLNNLRAEDTGTYYCARDDGSGWTGNTIDTWGHGTEVIVSSTSGQAGQHHHHHHGAYPYDVPDYAS
Turning to B3, in the assay with PTP1B (reduced, active), the “direct effect on PTP1B activity” value was “no direct inhibition of PTP activity”. The “inhibition of reactivation of PTP1B-OX by reducing agent (restoration of PTP1B activity after reversible oxidation)” value with PTP1B-OX was “substantial inhibition of the restoration of PTP1B activity”. Further, in the assay with endogenous PTP1B-OX (FIGS. 11, 12), the “binding of intrabody to endogenous PTP1B-OX” value is listed as “bound to endogenous PTP1B-OX strongly; also recorded: co-pulldown of PTP1B-OX in the presence of H2O2”. Moreover, in assay [1], the “binding of intrabody to endogenous PTP1B under reducing conditions” value is “not in the presence of NAC and TCEP”.
